Assay results: patent publication US20220089698A1 (published 2022)
Changes are numbered by the printed parent chain.

B1: 1.21.1-1 (antibody, human IgG1, kappa)
heavy: QVQLLQSGAAVTKPGASVRVSCEASGYNIRDYFIHWWRQAPGQGLQWVGWINPKTGQPNNPRQFQGRVSLTRDASWDFDTFSFYMDLKALRSDDTAVYFCARQRSDYWDFDVWGSGTQVTVSSASTKGPSVFPLAPSSKSTSGGTAALGCLVKDYFPEPVTVSWNSGALTSGVHTFPAVLQSSGLYSLSSVVTVPSSSLGTQTYICNVNHKPSNTKVDKKVEPKSCDKTHTCPPCPAPELLAGPDVFLFPPKPKDTLMISRTPEVTCVVVDVSHEDPEVKFNWYVDGVEVHNAKTKPREEQYNSTYRVVSVLTVLHQDWLNGKEYKCKVSNKALPLPEEKTISKAKGQPREPQVYTLPPSREEMTKNQVSLTCLVKGFYPSDIAVEWESNGQPENNYKTTPPVLDSDGSFFLYSKLTVDKSRWQQGNVFSCSVLHEALHSHYTQKSLSLSPGK
light: DIQMTQSPSSLSASVGDTVTITCQANGYLNWYQQRRGKAPKLLIYDGSKLERGVPSRFSGRRWGQEYNLTINNLQPEDIATYFCQVYEFVVPGTRLDLKRTVAAPSVFIFPPSDEQLKSGTASVVCLLNNFYPREAKVQWKVDNALQSGNSQESVTEQDSKDSTYSLSSTLTLSKADYEKHKVYACEVTHQGLSSPVTKSFNRGEC
B2: 1.22.1-1 (antibody, human IgG1, kappa)
heavy: QVQLLQSGAAVTKPGASVRVSCEASGYNIRDYFIHWWRQAPGQGLQWVGWINPKTGQPNNPRQFQGRVSLTRHASTFSFYMDLKALRSDDTAVYFCARQRSDYWDFDVWGSGTQVTVSSASTKGPSVFPLAPSSKSTSGGTAALGCLVKDYFPEPVTVSWNSGALTSGVHTFPAVLQSSGLYSLSSVVTVPSSSLGTQTYICNVNHKPSNTKVDKKVEPKSCDKTHTCPPCPAPELLAGPDVFLFPPKPKDTLMISRTPEVTCVVVDVSHEDPEVKFNWYVDGVEVHNAKTKPREEQYNSTYRVVSVLTVLHQDWLNGKEYKCKVSNKALPLPEEKTISKAKGQPREPQVYTLPPSREEMTKNQVSLTCLVKGFYPSDIAVEWESNGQPENNYKTTPPVLDSDGSFFLYSKLTVDKSRWQQGNVFSCSVLHEALHSHYTQKSLSLSPGK
light: B1 light
B3: 1v2-1 (antibody, human IgG1, kappa)
heavy: B1 heavy with D73H, F81Y
light: B1 light
B4: 1.24.1-1 (antibody, human IgG1, kappa)
heavy: B1 heavy with D73H, Y84S
light: B1 light
B5: 1.25.1-1 (antibody, human IgG1, kappa)
heavy: B1 heavy with D73H, K88S, A89R
light: B1 light
B6: 1.26.1-1 (antibody, human IgG1, kappa)
heavy: B1 heavy with D73H, V97T
light: B1 light
B7: 1.27.1-1 (antibody, human IgG1, kappa)
heavy: B1 heavy with D73H, S105T
light: B1 light
B8: 1.28.1-1 (antibody, human IgG1, kappa)
heavy: B1 heavy with D73H, V97T, S105T
light: B1 light
B9: 1.29.1-1 (antibody, human IgG1, kappa)
heavy: B1 heavy with D73H, S115Q
light: B1 light
B10: 1.30.1-1 (antibody, human IgG1, kappa)
heavy: B1 heavy with D73H, Q118M
light: B1 light
B11: 1.1.2-1 (antibody, human IgG1)
heavy: B1 heavy with D73H
VL: DIQMTQSPSSLSASVGDTVTITCQANGYLNWYQQKPGKAPKLLIYDGSKLERGVPSRFSGRRWGQEYNLTINNLQPEDIATYFCQVYEFVVPGTKVDIK
B12: 1.1.3-1 (antibody, human IgG1, kappa)
heavy: B1 heavy with D73H
light: B1 light with D1E
B13: 1.1.4-1 (antibody, human IgG1, kappa)
heavy: B1 heavy with D73H
light: B1 light with T18R
B14: 1.1.5-1 (antibody, human IgG1, kappa)
heavy: B1 heavy with D73H
light: B1 light with R35K, R36P
B15: 1.1.6-1 (antibody, human IgG1, kappa)
heavy: B1 heavy with D73H
light: B1 light with G47A
B16: 1.1.7-1 (antibody, human IgG1, kappa)
heavy: B1 heavy with D73H
light: B1 light with K49N
B17: 1.1.8-1 (antibody, human IgG1, kappa)
heavy: B1 heavy with D73H
light: B1 light with G47A, K49N
B18: 1.1.9-1 (antibody, human IgG1, kappa)
heavy: B1 heavy with D73H
light: B1 light with R52T
B19: 1.1.10-1 (antibody, human IgG1, kappa)
heavy: B1 heavy with D73H
light: B1 light with N68T
B20: 1.1.11-1 (antibody, human IgG1, kappa)
heavy: B1 heavy with D73H
light: B1 light with R61S, N68T
B21: 1.1.12-1 (antibody, human IgG1, kappa)
heavy: B1 heavy with D73H
light: B1 light with N72S, N73S
B22: 1.1.13-1 (antibody, human IgG1, kappa)
heavy: B1 heavy with D73H
light: B1 light with R61S, N68T, N72S, N73S
B23: 1.1.15-1 (antibody, human IgG1, kappa)
heavy: B1 heavy with D73H
light: B1 light with V90F
B24: 1.1.16-1 (antibody, human IgG1, kappa)
heavy: B1 heavy with D73H
light: B1 light with V91G
B25: 1.1.17-1 (antibody, human IgG1, kappa)
heavy: B1 heavy with D73H
light: B1 light with V90F, V91G
B26: 1.1.18-1 (antibody, human IgG1, kappa)
heavy: B1 heavy with D73H
light: B1 light with V91S
B27: 1.1.19-1 (antibody, human IgG1, kappa)
heavy: B1 heavy with D73H
light: B1 light with V91T
B28: 1.1.20-1 (antibody, human IgG1, kappa)
heavy: B1 heavy with D73H
light: B1 light with R95N
B29: 1.1.21-1 (antibody, human IgG1, kappa)
heavy: B1 heavy with D73H
light: B1 light with V91G, R95N
B30: 1.1.22-1 (antibody, human IgG1, kappa)
heavy: B1 heavy with D73H
light: B1 light with V91S, R95N
B31: 1.1.23-1 (antibody, human IgG1, kappa)
heavy: B1 heavy with D73H
light: B1 light with V91T, R95N
B32: 1.1.24-1 (antibody, human IgG1, kappa)
heavy: B1 heavy with D73H
light: B1 light with L96V

Assays:
HIV gp120 CAAN = HIV gp120 CAAN (HIV); assay: single-point ELISA; also: test concentration or dose not given here
HIV gp120 Bal = HIV gp120 Bal (HIV); assay: single-point ELISA; also: test concentration or dose not given here

Binder	ELISA (A450) (HIV gp120 CAAN)	ELISA (A450) (HIV gp120 Bal)
B1	0.77	0.87
B2	0.87	1.03
B3	1	1.03
B4	0.9	0.98
B5	1.16	1.07
B6	1	0.81
B7	0.86	0.86
B8	0.99	1.05
B9	1.08	1.03
B10	1.05	0.81
B11	0.93	0.95
B12	1	0.97
B13	1.09	0.96
B14	0.9	0.9
B15	0.46	0.91
B16	1	0.95

Binder	ELISA (A450) (HIV gp120 CAAN)	ELISA (A450) (HIV gp120 Bal)
B17	0.5	1.01
B18	0.93	0.98
B19	1.1	0.94
B20	1.03	0.92
B21	1.02	1.05
B22	1.11	0.94
B23	0.79	0.93
B24	0.99	1.06
B25	0.9	1.02
B26	0.92	0.92
B27	1.05	1.03
B28	0.95	0.94
B29	0.99	0.98
B30	1.02	0.88
B31	0.95	0.9
B32	0.98	0.88
